The text below walks through data of paper PMC9852587.

For this experiment, the target named is His-SYMREM1 (Medicago truncatula). As to the kind of experiment: SEC; analytical gel filtration of fresh recombinant His-SYMREM1, calibrated with standard proteins; apparent molecular weight compared with the calculated size of a dimer.

What is called stoichiometry N is the number of molecules, sites or subunits per partner or assembly. For His-SYMREM1 (natural protein), the stoichiometry N was 2.
